Tests used:
[1] = target: endogenous rat PP1 (detected with an antibody that recognizes all PP1 isoforms) (rat (endogenous in primary hippocampal neurons)) (UniProt P62138); assay: proximity ligation; PLA in fixed primary rat hippocampal neurons (DIV 8) with Tau7 and a pan-PP1 antibody; puncta per area of Tau12 (human tau) staining; n = 3; untransduced neurons for endogenous tau; parameters: unit not given here
[2] = target: endogenous rat PP1γ (rat (endogenous in primary hippocampal neurons)) (UniProt P63088); assay: proximity ligation; PLA in fixed primary rat hippocampal neurons with Tau7 and a PP1γ-specific antibody; puncta per area of Tau12 staining; n = 3; untransduced neurons for endogenous tau; parameters: unit not given here
Chain of UniProt P63088 (P63088 whole entry): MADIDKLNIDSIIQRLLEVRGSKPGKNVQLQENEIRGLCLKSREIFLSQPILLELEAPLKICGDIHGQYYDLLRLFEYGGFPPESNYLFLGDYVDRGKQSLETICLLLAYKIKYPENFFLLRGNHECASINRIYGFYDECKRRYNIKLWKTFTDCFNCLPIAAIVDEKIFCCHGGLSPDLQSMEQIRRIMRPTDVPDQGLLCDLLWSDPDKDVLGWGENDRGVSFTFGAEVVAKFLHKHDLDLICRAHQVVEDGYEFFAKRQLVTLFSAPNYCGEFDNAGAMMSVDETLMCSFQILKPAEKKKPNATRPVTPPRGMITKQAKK

Chain of UniProt P62138 (P62138 whole entry, canonical isoform): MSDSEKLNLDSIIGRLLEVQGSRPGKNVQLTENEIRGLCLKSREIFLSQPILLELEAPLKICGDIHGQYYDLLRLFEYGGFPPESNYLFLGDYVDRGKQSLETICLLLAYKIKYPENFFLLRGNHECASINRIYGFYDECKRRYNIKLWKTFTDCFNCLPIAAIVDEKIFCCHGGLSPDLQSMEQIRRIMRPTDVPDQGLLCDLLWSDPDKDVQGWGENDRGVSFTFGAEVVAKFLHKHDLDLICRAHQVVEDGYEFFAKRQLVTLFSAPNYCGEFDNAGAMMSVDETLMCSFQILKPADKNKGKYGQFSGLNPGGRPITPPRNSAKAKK

Substance	PLA puncta per area of Tau12 staining [1]	PLA puncta per area of Tau12 staining [2]
P301L mutant human tau (C-terminally FLAG-tagged) expressed by lentivirus in rat hippocampal neurons (natural protein)	67.3	28
R5L mutant human tau (C-terminally FLAG-tagged) expressed by lentivirus in rat hippocampal neurons (natural protein)	31.3	16.2
wild-type human tau (C-terminally FLAG-tagged) expressed by lentivirus in rat hippocampal neurons (natural protein)	23.1	11.3

Source: paper PMC8580143
